Laboratory results from patent US20220119534A1 (DRAGONFLY THERAPEUTICS, published 2022).
“And” between values parts separate entries of the source, which are not always exact repeats. Equal entries are not always repeated.

What was measured:
[1] = molecular target: T1, human CLEC12A expressed on cells (human, UniProt Q5QGZ9 1-265); assay: flow cytometry, HL60
T1 construct: Transduced isogenic cells or endogenous expression on AML cells; also called RMA-hCLEC12A; Ba/F3-hCLEC12A
T1 sequence: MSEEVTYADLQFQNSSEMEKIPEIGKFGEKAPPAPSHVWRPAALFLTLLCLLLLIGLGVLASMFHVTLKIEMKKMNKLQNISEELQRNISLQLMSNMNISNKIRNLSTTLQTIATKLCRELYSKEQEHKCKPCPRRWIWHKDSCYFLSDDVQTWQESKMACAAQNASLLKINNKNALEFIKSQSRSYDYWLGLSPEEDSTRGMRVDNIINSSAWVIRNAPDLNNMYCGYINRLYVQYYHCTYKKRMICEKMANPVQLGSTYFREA

[2] = molecular target: T2, recombinant human CD16a V158 (human, UniProt P08637 17-208, biotinylated); assay: SPR 25C, kinetic fit
T2 construct: also called FcγRIIIa V158; hCD16aV
T2 sequence (P08637 17-208 F176V limits assumed): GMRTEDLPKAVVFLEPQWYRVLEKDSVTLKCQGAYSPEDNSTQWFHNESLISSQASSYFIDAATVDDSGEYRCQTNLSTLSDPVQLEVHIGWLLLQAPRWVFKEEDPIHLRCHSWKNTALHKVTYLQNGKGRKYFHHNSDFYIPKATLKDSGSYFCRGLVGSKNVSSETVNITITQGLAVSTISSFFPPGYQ

[3] = molecular target: T3, recombinant human CD16b (human, UniProt O75015 17-200, limits assumed, biotinylated); assay: SPR 25C, steady state
T3 construct: also called FcγRIIIb
T3 sequence (O75015 17-200 limits assumed): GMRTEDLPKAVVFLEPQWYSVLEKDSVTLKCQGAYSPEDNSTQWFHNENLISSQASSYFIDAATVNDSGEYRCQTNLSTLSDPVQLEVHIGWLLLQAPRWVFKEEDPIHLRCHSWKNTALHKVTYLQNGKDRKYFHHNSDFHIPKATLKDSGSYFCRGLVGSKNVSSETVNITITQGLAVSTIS

[4] = molecular target: T4, recombinant cynomolgus CD16 (cynomolgus monkey, UniProt Q8SPW2 17-208, biotinylated); assay: SPR 25C, steady state
T4 construct: also called cFcγRIII; cyno CD16
T4 sequence (Q8SPW2 17-208 limits assumed): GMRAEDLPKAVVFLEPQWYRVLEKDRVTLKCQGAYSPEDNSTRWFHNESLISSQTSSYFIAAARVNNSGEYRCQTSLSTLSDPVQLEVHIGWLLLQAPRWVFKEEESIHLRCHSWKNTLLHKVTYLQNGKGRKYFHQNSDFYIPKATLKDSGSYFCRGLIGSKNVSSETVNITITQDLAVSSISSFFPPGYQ
From the text: Human and cyno CD64, high and low affinity alleles of CD16a (V158 and F158, respectively), two alleles of CD32a (H131 and R131), CD16b, CD32b and cynomolgus CD16 were captured via biotin on a primed Biacore chip, prepared according to the manufacturer's instructions.

[5] = molecular target: T5, recombinant human CD16a F158 (human, UniProt P08637 17-208); assay: SPR 25C, steady state, average
T5 construct: also called FcγRIIIa F158
T5 sequence (P08637 17-208 limits assumed): as the sequence (P08637 17-208 F176V limits assumed) above, with V160F counted along it

B1: F3'-1602 TriNKET (other)
chain: QLQLQESGPGLVKPSETLSLTCTVSGFSLTNYGLHWIRQPPGKCLEWIGVIWSGGKTDYNPSLKSRVTISKDTSKNQFSLKLSSVQAADTAVYYCAKYDYDDSLDYWGQGTLVTVSSGGGGSGGGGSGGGGSGGGGSDIQMTQSPSSLSASVGDRVTITCHASQNINFWLSWYQQKPGKAPKLLIYEASNLHTGVPSRFSGSGSGTRFTLTISSLQPEDIATYYCQQSHSYPLTFGCGTKLEIKGSDKTHTCPPCPAPELLGGPSVFLFPPKPKDTLMISRTPEVTCVVVDVSHEDPEVKFNWYVDGVEVHNAKTKPREEQYNSTYRVVSVLTVLHQDWLNGKEYKCKVSNKALPAPIEKTISKAKGQPREPRVYTLPPCRDELTKNQVSLTCLVKGFYPSDIAVEWESNGQPENNYKTTPPVLVSDGSFTLYSKLTVDKSRWQQGNVFSCSVMHEALHNHYTQKSLSLSPG
heavy: EVQLVESGGGLVKPGGSLRLSCAASGFTFSSYSMNWVRQAPGKGLEWVSSISSSSSYIYYADSVKGRFTISRDNAKNSLYLQMNSLRAEDTAVYYCARGAPIGAAAGWFDPWGQGTLVTVSSASTKGPSVFPLAPSSKSTSGGTAALGCLVKDYFPEPVTVSWNSGALTSGVHTFPAVLQSSGLYSLSSVVTVPSSSLGTQTYICNVNHKPSNTKVDKKVEPKSCDKTHTCPPCPAPELLGGPSVFLFPPKPKDTLMISRTPEVTCVVVDVSHEDPEVKFNWYVDGVEVHNAKTKPREEQYNSTYRVVSVLTVLHQDWLNGKEYKCKVSNKALPAPIEKTISKAKGQPREPQVCTLPPSRDELTENQVSLTCLVKGFYPSDIAVEWESNGQPENNYKTTPPVLDSDGSFFLYSWLTVDKSRWQQGNVFSCSVMHEALHNHYTQKSLSLSPG
light: DIQMTQSPSSVSASVGDRVTITCRASQGISSWLAWYQQKPGKAPKLLIYAASSLQSGVPSRFSGSGSGTDFTLTISSLQPEDFATYYCQQGVSFPRTFGGGTKVEIKRTVAAPSVFIFPPSDEQLKSGTASVVCLLNNFYPREAKVQWKVDNALQSGNSQESVTEQDSKDSTYSLSSTLTLSKADYEKHKVYACEVTHQGLSSPVTKSFNRGEC
notes: CLEC12A scFv-Fc, NKG2D A49MI Fab-Fc, human IgG1 Fc; also called AB0237
For B1, which EC50 [1] is on record?
Its EC50 is 2.2 nM.

And the Kd [2]?
The Kd was 234 nM and 235 nM and 243 nM and 241 nM.

What about the koff [2] of the same binder?
Its koff is 0.022 s⁻¹ and 0.023 s⁻¹.

And the kon [2]?
Its kon is 96000 M⁻¹ s⁻¹ and 95000 M⁻¹ s⁻¹ and 93000 M⁻¹ s⁻¹.

And the Kd [3]?
Its Kd is 7600 nM and 7200 nM and 8600 nM and 6500 nM.

And the Kd [4]?
The Kd was 315 nM and 294 nM and 302 nM.

What about the Kd [5] of the same binder?
Its Kd is 1110 nM.
